IntAct's records for PubMed 31515488

B1: Microtubule-associated tumor suppressor candidate 2 (Homo sapiens), Q5JR59-3 (parent)
chain: MGHCCCKPYNCLQCLDKTNESALVKEKELSIELANIRDEVAFHTAKCEKLQKEKEELERRFEDEVKRLGWQQQAELQELEERLQLQFEAEMARLQEEHGDQLLSIRCQHQEQVEDLTASHDAALLEMENNHTVAITILQDDHDHKVQELMSTHELEKKELEENFEKLRLSLQDQVDTLTFQSQSLRDRARRFEEALRKNTEEQLEIALAPYQHLEEDMKSLKQVLEMKNQQIHEQEKKILELEKLAEKNIILEEKIQVLQQQNEDLKARIDQNTVVTRQLSEENANLQEYVEKETQEKKRLSRTNEELLWKLQTGDPTSPIKLSPTSPVYRGSSSGPSSPARVSTTPR
partner: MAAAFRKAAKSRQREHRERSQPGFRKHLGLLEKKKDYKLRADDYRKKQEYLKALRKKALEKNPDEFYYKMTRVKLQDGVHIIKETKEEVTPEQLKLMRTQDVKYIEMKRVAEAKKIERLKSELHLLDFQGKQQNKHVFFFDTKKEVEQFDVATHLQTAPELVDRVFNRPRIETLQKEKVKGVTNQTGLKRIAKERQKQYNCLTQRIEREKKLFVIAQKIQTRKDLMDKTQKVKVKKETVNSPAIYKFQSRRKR
B2: Pseudouridylate synthase PUS7L (Homo sapiens), Q9H0K6 (parent)
chain: MEEDTDYRIRFSSLCFFNDHVGFHGTIKSSPSDFIVIEIDEQGQLVNKTIDEPIFKISEIQLEPNNFPKKPKLDLQNLSLEDGRNQEVHTLIKYTDGDQNHQSGSEKEDTIVDGTSKCEEKADVLSSFLDEKTHELLNNFACDVREKWLSKTELIGLPPEFSIGRILDKNQRASLHSAIRQKFPFLVTVGKNSEIVVKPNLEYKELCHLVSEEEAFDFFKYLDAKKENSKFTFKPDTNKDHRKAVHHFVNKKFGNLVETKSFSKMNCSAGNPNVVVTVRFREKAHKRGKRPLSECQEGKVIYTAFTLRKENLEMFEAIGFLAIKLGVIPSDFSYAGLKDKKAITYQAMVVRKVTPERLKNIEKEIEKKRMNVFNIRSVDDSLRLGQLKGNHFDIVIRNLKKQINDSANLRERIMEAIENVKKKGFVNYYGPQRFGKGRKVHTDQIGLALLKNEMMKAIKLFLTPEDLDDPVNRAKKYFLQTEDAKGTLSLMPEFKVRERALLEALHRFGMTEEGCIQAWFSLPHSMRIFYVHAYTSKIWNEAVSYRLETYGARVVQGDLVCLDEDIDDENFPNSKIHLVTEEEGSANMYAIHQVVLPVLGYNIQYPKNKVGQWYHDILSRDGLQTCRFKVPTLKLNIPGCYRQILKHPCNLSYQLMEDHDIDVKTKGSHIDETALSLLISFDLDASCYATVCLKEIMKHDV
partner: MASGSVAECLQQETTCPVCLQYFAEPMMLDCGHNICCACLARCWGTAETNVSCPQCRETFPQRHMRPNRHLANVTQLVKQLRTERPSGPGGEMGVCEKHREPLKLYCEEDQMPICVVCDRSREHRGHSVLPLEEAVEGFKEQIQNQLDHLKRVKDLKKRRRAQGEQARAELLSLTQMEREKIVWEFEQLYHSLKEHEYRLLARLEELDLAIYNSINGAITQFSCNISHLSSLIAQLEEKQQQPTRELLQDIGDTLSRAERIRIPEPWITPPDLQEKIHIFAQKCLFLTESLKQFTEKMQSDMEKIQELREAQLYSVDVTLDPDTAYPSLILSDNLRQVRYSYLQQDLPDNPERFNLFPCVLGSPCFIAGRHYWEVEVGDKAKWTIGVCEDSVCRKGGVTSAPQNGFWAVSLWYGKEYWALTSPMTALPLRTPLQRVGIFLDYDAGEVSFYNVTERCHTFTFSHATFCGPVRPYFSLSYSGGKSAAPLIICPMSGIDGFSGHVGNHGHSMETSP
B3: G protein pathway suppressor 2 (Homo sapiens), Q13227 (parent)
chain: MPALLERPKLSNAMARALHRHIMMERERKRQEEEEVDKMMEQKMKEEQERRKKKEMEERMSLEETKEQILKLEEKLLALQEEKHQLFLQLKKVLHEEEKRRRKEQSDLTTLTSAAYQQSLTVHTGTHLLSMQGSPGGHNRPGTLMAADRAKQMFGPQVLTTRHYVGSAAAFAGTPEHGQFQGSPGGAYGTAQPPPHYGPTQPAYSPSQQLRAPSAFPAVQYLSQPQPQPYAVHGHFQPTQTGFLQPGGALSLQKQMEHANQQTGFSDSSSLRPMHPQALHPAPGLLASPQLPVQMQPAGKSGFAATSQPGPRLPFIQHSQNPRFYHK
partner: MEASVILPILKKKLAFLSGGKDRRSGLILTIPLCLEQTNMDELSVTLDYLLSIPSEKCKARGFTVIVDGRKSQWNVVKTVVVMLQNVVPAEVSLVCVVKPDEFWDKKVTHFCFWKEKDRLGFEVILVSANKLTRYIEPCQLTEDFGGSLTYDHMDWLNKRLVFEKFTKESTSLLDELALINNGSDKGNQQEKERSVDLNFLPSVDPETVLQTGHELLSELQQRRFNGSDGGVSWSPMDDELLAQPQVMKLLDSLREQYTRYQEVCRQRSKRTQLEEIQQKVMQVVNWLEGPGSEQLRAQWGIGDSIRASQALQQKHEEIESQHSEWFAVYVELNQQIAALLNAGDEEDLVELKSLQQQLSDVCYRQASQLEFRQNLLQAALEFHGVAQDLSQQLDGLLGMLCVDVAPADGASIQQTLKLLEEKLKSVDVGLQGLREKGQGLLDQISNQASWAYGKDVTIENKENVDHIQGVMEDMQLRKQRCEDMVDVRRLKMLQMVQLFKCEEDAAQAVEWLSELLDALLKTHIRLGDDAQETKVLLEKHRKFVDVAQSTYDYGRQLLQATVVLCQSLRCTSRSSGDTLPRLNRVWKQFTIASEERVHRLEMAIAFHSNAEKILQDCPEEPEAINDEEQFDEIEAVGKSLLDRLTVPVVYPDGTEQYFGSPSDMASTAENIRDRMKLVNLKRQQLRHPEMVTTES
B4: Protein DBF4 homolog B (Homo sapiens), Q8NFT6 (parent)
chain: MSEPGKGDDCLELESSMAESRLRAPDLGVSRCLGKCQKNSPGARKHPFSGKSFYLDLPAGKNLQFLTGAIQQLGGVIEGFLSKEVSYIVSSRREVKAESSGKSHRGCPSPSPSEVRVETSAMVDPKGSHPRPSRKPVDSVPLSRGKELLQKAIRNQGSISGGGSGGSSSLLTNARSWGVRILHVDEMMMHVQQLSLASLCVKKQQPKKPEGTCPAAESRTRKVARLKAPFLKIEDESRKFRPFHHQFKSFPEISFLGPKDASPFEAPTTLGSMHHTRESKDGEPSPRSAAHTMPRRKKGYCECCQEAFEELHVHLQSAQHRSFALEAHLYAEVDRIIAQLSHSFADIPFQAGLPRWSGSPASDCDPLCPETLHPHQPSHPRAASPRIRKEDSCQASVTQGRAAGQQRWTESLDGVMGPPASHTCVSATTLLPALPKGSREQGCLCPCPASFTQSHLVTSLALLPGEWSPAEDMPLHPSQENSFAPADIPVKGPLLFPEARPWLMSARCWVRPFPFVTWGCLIPHDTTPLHEEVSPCPCLRLGYLYLLLTQSLWCRVRVPSLSTAGPIPRTSHPCTLAFPSYLNDHDLGHLCQAKPQGWNTPQPFLHCGFLAVDSG
partner: B2 partner
B5: Coiled-coil domain-containing protein 33 (Homo sapiens), Q8N5R6-5 (parent)
chain: MGEPGPPSPPAPKAAPGLIDSFSEMNNYRRAMQKMAEDILSLRRQASILEGENRILRSRLAQQEEEEGQGKASEAQNTVSMKQKLLLSELDMKKLRDRVQHLQNELIRKNDREKELLLLYQAQQPQAALLKQYQGKLQKMKALEETVRHQEKVIEKMERVLEDRLQDRSKPPPLNRQQGKPYTGFPMLSASGLPLGSMGENLPVELYSVLLAENAKLRTELDKNRHQQAPIILQQQALPVDPGELGAGGDLTERLQETHGPGHSECTETLPAQDLLSGTSDKFNLLAKLEHAQSRILSLESQLEDSARRWGREKQDLATRLQEQEKGFRHPSNSIIIEQPVSDPPGVAPRGSGGGAGSHRTPKVTGP
partner: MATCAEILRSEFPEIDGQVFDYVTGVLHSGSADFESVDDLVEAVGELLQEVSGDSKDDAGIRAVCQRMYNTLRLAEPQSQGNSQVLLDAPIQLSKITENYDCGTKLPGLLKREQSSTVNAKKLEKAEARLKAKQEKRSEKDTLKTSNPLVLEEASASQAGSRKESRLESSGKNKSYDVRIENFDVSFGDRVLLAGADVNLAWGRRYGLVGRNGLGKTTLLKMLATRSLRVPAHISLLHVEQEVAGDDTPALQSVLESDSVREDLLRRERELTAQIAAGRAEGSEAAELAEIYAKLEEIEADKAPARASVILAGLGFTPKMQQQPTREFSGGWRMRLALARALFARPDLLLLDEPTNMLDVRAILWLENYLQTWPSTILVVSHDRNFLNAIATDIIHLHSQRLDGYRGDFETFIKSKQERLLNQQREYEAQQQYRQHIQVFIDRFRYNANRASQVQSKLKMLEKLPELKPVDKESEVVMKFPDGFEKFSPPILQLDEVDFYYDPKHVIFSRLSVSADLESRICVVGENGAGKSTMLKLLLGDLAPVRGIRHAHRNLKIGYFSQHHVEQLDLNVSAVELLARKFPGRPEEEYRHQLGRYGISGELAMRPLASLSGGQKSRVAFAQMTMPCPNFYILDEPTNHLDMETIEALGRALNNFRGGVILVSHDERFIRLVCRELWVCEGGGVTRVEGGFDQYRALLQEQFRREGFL

Variants of: B1
Settings: with utp11_human UTP11, Q9Y3A2
For A89V, the “effect of a mutation on the interaction” value was “with no effect”.

Variants of: B2
Settings: with tri27_human TRIM27, P14373
With R527C the “effect of a mutation on the interaction” value was “disrupting interaction strength”.
With I50V the “effect of a mutation on the interaction” value was “with no effect”.

Variants of: B3
Settings: with sesd1_human SESTD1, Q86VW0
In the case of A215T, the “effect of a mutation on the interaction” value is reported as “with no effect”.

Variants of: B4
Settings: with tri27_human TRIM27, P14373
For L199S, the “effect of a mutation on the interaction” value was “with no effect”.

Variants of: B5
Settings: with abcf3_human ABCF3, Q9NUQ8
In the case of P203L, the “effect of a mutation on the interaction” value is reported as “with no effect”.
